Molecular target: FLAG-2xStrep-PNO1 (UniProt Q9NRX1)
Test: co-IP

Chain of UniProt Q9NRX1 (Q9NRX1 whole entry): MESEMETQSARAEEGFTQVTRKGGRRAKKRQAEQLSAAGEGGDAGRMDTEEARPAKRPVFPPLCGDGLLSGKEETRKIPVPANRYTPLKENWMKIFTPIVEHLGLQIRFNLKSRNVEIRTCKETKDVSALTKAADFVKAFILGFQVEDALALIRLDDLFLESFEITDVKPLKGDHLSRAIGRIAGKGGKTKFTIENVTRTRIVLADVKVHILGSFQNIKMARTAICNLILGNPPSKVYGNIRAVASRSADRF

EMG1 (from UniProt Q92979 1-244) (natural protein)
fold increase of association, lytic against latent cells: 3 fold

— article doi:10.1101/2024.07.23.604771
